Target: prion-like C-terminal domain of TDP-43 (TDP-43PrLD), in droplets with poly-A RNA (UniProt Q13148)
Test: co-sedimentation

Chain of prion-like C-terminal domain of TDP-43 (TDP-43PrLD), in droplets with poly-A RNA (Q13148 267-414): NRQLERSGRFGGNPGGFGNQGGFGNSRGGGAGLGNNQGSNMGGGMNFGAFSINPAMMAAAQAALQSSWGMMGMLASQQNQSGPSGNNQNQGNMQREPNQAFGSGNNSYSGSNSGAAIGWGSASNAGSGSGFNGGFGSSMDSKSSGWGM

α-synuclein, wild-type monomers (from UniProt P37840 1-140) (natural protein)
percent of total αS partitioned into the droplets: 8%

— PMC10473755
